The supplement of paper PMC9170038

Test system: MS2 coat protein
Test: apparent KD of MS2 coat protein; designed switch direction (-1 OFF switch, 1 ON switch): -1; higher = weaker reporter binding
Procedure, shortened: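 The buffer was Tris-HCl pH 7.5 with KCl, MgCl2, BSA, DTT, tRNA and Tween-20. In it, SNAP-549-labelled MS2 coat protein was titrated in doubling steps from 0.7 or 1.5 nM to 3 µM over chip-bound RNA switches transcribed by stalled E. coli RNA polymerase on Illumina chips. Apparent KD is the per-design median over clusters of curve fits to normalised fluorescence.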

[1] = input ligand: microRNA oligo, concentration not stated
[2] = Eterna round: R95, input ligand: microRNA oligo, concentration not stated
[3] = Eterna round: R95, input ligand: FMN 200 uM
[4] = Eterna round: R95, input ligand: none

For “UAUAUAUAGUAAGGAUAUGUAUUAAAUUUAUAAACAGAAGGUACUGACAUGAGGAUCACCCAUGUUUUAGUGUGGGCAUGUAGA [JMF's solution 75] (Eterna round: R96, puzzle: Exclusion NG 1)”, the “apparent KD of MS2 coat protein” value [1] was 69 nM.

“UAUAUAUAGUAAGGAUAUGUAUUUAUAUUAUAAACAGAAGGUACUGACAUGAGGAUCACCCAUGUUUUAGUGUGGGCAUGUAGA [JMF's solution 15] (Eterna round: R96, puzzle: Exclusion NG 1)” was tested, and the “apparent KD of MS2 coat protein” value [1] was 66.6 nM.

“UAUAUAUAGUAAGGAUAUGUAUUUAUUUUAUCAACAGAAGGUACUGACAUGAGGAUCACCCAUGUUUUAGUGUGGGCAUGUAGA [JMF's solution 26] (Eterna round: R96, puzzle: Exclusion NG 1)” was tested, and the “apparent KD of MS2 coat protein” value (input ligand: FMN 200 uM) was 155 nM, the “apparent KD of MS2 coat protein” value [1] was 69.7 nM and the “apparent KD of MS2 coat protein” value (input ligand: none) was 85.7 nM.

With “UAUAUGUCAGGAUAUCGAUUAGUACGGGAUUCGGUACUGGUUGAGAAGGGACAUGAGGAUCACCCAUGUUUUUC [EX4 #69] (Eterna round: R97, puzzle: Exclusion 4)” the “apparent KD of MS2 coat protein” value (input ligand: FMN 200 uM) was 284 nM and the “apparent KD of MS2 coat protein” value (input ligand: none) was 36.5 nM.

In the case of “UAUAUGUCAGGAUAUCGAUUGGAACAGAAUUUAACAAUGGUCGAGAAGGGACAUGAGGAUCACCCAUGUUCAAC [JR_Ex4_Sub020] (Eterna round: R97, puzzle: Exclusion 4)”, the “apparent KD of MS2 coat protein” value (input ligand: FMN 200 uM) was 27.3 nM and the “apparent KD of MS2 coat protein” value (input ligand: none) was 21.9 nM.

For “UAUAUGUGAGGAUAUCAGGUGUGCUAGCGUACUGGUACAUCUGAGAAGGCACAUGAGGAUCACCCAUGUUUCUU [JL-ex4-3.24 Brourd mod] (puzzle: Exclusion 4)”, the “apparent KD of MS2 coat protein” value [2] was 24.4 nM.

With “UAUCGGGACUGAGGAUAUUCGUUCGAACACGAAGAAGAAGGUAGUGUCAGGGACAUGAGGAUCACCCAUGUGAACUCAGUCCUA [JL ViennaUCT Erinle mod] (Eterna round: R96, puzzle: Exclusion NG 1)” the “apparent KD of MS2 coat protein” value (input ligand: FMN 200 uM) was 38.3 nM, the “apparent KD of MS2 coat protein” value [1] was 33.7 nM and the “apparent KD of MS2 coat protein” value (input ligand: none) was 38.3 nM.

In the case of “UAUGACUGAGGAUAUUGUACUGCUGACAUGAGGAUCACCCAUGUAUGCUAACUCGGCCGUCGAGAAGGCAGUUAUG [BotMod 26 - Jieux - Exclusion 5] (Eterna round: R97, puzzle: Exclusion 5)”, the “apparent KD of MS2 coat protein” value (input ligand: FMN 200 uM) was 16.5 nM and the “apparent KD of MS2 coat protein” value (input ligand: none) was 52 nM.

For “UAUGGUUAAGUCAGGAUAUGCACGCAGAGAACAAAGCAGAAGGGACAUGAGGAUCACCCAUGUAAAGUCGUGUU [Ex4 #77] (Eterna round: R97, puzzle: Brourd's mod of Exclusion 4)”, the “apparent KD of MS2 coat protein” value (input ligand: FMN 200 uM) was 31.2 nM and the “apparent KD of MS2 coat protein” value (input ligand: none) was 23 nM.

In the case of “UAUGGUUAAGUCAGGAUAUGCUCGUAGUGGUCUAUGCAGAAGGGACAUGAGGAUCACCCAUGUAUGGUCGUGUU [Ex4 #68] (Eterna round: R97, puzzle: Brourd's mod of Exclusion 4)”, the “apparent KD of MS2 coat protein” value (input ligand: FMN 200 uM) was 119 nM and the “apparent KD of MS2 coat protein” value (input ligand: none) was 106 nM.

For “UAUGUUGUUGUGAGGAUAUACUUAGUUUGACCGUAGUAGAAGGCACAUGAGGAUCACCCAUGUAGAUGCUUGGU [JR_BME4_Sub006] (puzzle: Brourd's mod of Exclusion 4)”, the “apparent KD of MS2 coat protein” value [2] was 5.53 nM.

For “UAUGUUGUUGUGAGGAUAUACUUUGUUUGGUCGUAGUAGAAGGCACAUGAGGAUCACCCAUGUAGAUUUUUGGU [JR_BME4_Sub009] (puzzle: Brourd's mod of Exclusion 4)”, the “apparent KD of MS2 coat protein” value [2] was 20 nM.

For “UAUUAACAAGCUAGAUCUUACAUGAGGAUCACCCAUGUGCUCGUCUUAUAAGGUACUGUGACGAAAGUCACGGUACC [Sensor 3, v1 - 77] (puzzle: Sensor v3, turn-off variant 1)”, the “apparent KD of MS2 coat protein” value [3] was 22.7 nM, the “apparent KD of MS2 coat protein” value [2] was 149 nM and the “apparent KD of MS2 coat protein” value [4] was 22.5 nM.

In the case of “UAUUAGCAAGCGAGAUCCCACAUGAGGAUCACCCAUGUGCUCGUCUUAUAAAAGACUGUGACGAAAGUCACGGUCAC [Mat - Sensor, turn-off var - Eli Mod - D21] (Eterna round: R97, puzzle: Sensor, turn-off variant 1)”, the “apparent KD of MS2 coat protein” value (input ligand: FMN 200 uM) was 14.6 nM and the “apparent KD of MS2 coat protein” value (input ligand: none) was 15.7 nM.

“UAUUAGCAAGCGAGAUCCCACAUGAGGAUCACCCAUGUGCUCGUCUUAUAUAAGGUACUGUACGAUAGUACGGUACC [Mat - Sensor, turn-off var - Eli Mod - D28] (Eterna round: R97, puzzle: Sensor, turn-off variant 1)” was tested, and the “apparent KD of MS2 coat protein” value (input ligand: FMN 200 uM) was 16.7 nM and the “apparent KD of MS2 coat protein” value (input ligand: none) was 14.6 nM.

With “UAUUAGCAAGCGAGAUCCCACAUGAGGAUCACCCAUGUGCUCGUGCAUCCAGAAUUACUGGGUGCAGCUCGUCUUAU [Winner reversed engineered 12] (Eterna round: R97, puzzle: Sensor, turn-off variant 1)” the “apparent KD of MS2 coat protein” value (input ligand: FMN 200 uM) was 14.9 nM and the “apparent KD of MS2 coat protein” value (input ligand: none) was 14.7 nM.

For “UAUUAGCAAGCGAGUCUUCACAUGAGGAUCACCCAUGUGCUCGUCUUAUAAGGUACUGUGACGAAAGUCACGGUACC [Eli 91 v32] (Eterna round: R97, puzzle: Sensor, turn-off variant 1)”, the “apparent KD of MS2 coat protein” value (input ligand: FMN 200 uM) was 15.4 nM and the “apparent KD of MS2 coat protein” value (input ligand: none) was 14.8 nM.

With “UAUUAGCAAGUAAGAUCCCACAUGAGGAUCACCCAUGUGCUCGUCAUAUCAGGUACGGAGCGGAAACUCCCGAUAUG [Sensor-V1 #89] (Eterna round: R97, puzzle: Sensor, turn-off variant 1)” the “apparent KD of MS2 coat protein” value (input ligand: FMN 200 uM) was 106 nM and the “apparent KD of MS2 coat protein” value (input ligand: none) was 95.9 nM.

“UAUUAGCAAGUGAGGUCCCACAUGAGGAUCACCCAUGUGCUCGUCUUAUAAGGUACUGUGACGAUAGUCACGGUACC [Mat - Sensor, turn-off var - Eli Mod - D51] (Eterna round: R97, puzzle: Sensor, turn-off variant 1)” was tested, and the “apparent KD of MS2 coat protein” value (input ligand: FMN 200 uM) was 45.4 nM and the “apparent KD of MS2 coat protein” value (input ligand: none) was 45.5 nM.

With “UAUUAGCUAGGAUAUACAUGAGGAUCACCCAUGUCACGGGUCAACUUGUCCUAUGCGUGUAGAAGGAGCGACCC [JL Ceriza mod 5] (puzzle: Exclusion 3)” the “apparent KD of MS2 coat protein” value [2] was 18.8 nM.

In the case of “UAUUAGUUAGGAUAUACAUGAGGAUCACCCAUGUCACGGGUCCACUUGUCCUAUGCGUGUAGAAGGAGCGACCC [JL Ceriza mod 4] (puzzle: Exclusion 3)”, the “apparent KD of MS2 coat protein” value [2] was 19.2 nM.

For “UAUUAUCAAGCAAGAUCCCACAUGAGGAUCACCCAUGUGCUCGUCUUAUUUCCGGCCUUAUUGGGCUCUCGUCUAAU [JR_STOV1_v2_Sub094] (Eterna round: R97, puzzle: Sensor, turn-off variant 1)”, the “apparent KD of MS2 coat protein” value (input ligand: FMN 200 uM) was 34 nM and the “apparent KD of MS2 coat protein” value (input ligand: none) was 33.5 nM.

For “UAUUAUCAAGCUAGAUCCCACAUGAGGAUCACCCAUGUGCUCGUCUUAAUUCCAGAAUUACUGGGCUCUCGUCUUAU [JR_STOV1_Sub091] (Eterna round: R97, puzzle: Sensor, turn-off variant 1)”, the “apparent KD of MS2 coat protein” value (input ligand: FMN 200 uM) was 45.5 nM and the “apparent KD of MS2 coat protein” value (input ligand: none) was 45.1 nM.

With “UAUUCUAGAUAGGAUAUACUUUUUUUUUUUUUCGUAGAAGGAUCUACAUGAGGAUCACCCAUGUUAACAGCAGU [JR_E6_Sub010] (puzzle: Exclusion 6)” the “apparent KD of MS2 coat protein” value [3] was 66.5 nM, the “apparent KD of MS2 coat protein” value [2] was 51.6 nM and the “apparent KD of MS2 coat protein” value [4] was 40.4 nM.

In the case of “UAUUUAUAGCAAGGAUAUGAUUAUUAUUAUUUAUCAGAAGGUGCACAUGAGGAUCACCCAUGUUUUAUAAUUUGUAAUUUAAUU [Title] (Eterna round: R96, puzzle: Exclusion NG 1)”, the “apparent KD of MS2 coat protein” value [1] was 40.9 nM.

“UAUUUGCAAGGAUAUGAUUUAAGUAACAUGAGGAUCACCCAUGUUUAUCCGUUGUUAUGUUCAGAAGGUGCGUGAU [JR_E5_Sub019] (puzzle: Exclusion 5)” was tested, and the “apparent KD of MS2 coat protein” value [2] was 50.2 nM.

In the case of “UCAACCAGAGGAUAUGCGCAUAGAUCAGACUUUGUUUCUGAACAUGAGGAUCACCCAUGUAGAAGGCUGUAACC [Ex2 #78] (Eterna round: R97, puzzle: Exclusion 2)”, the “apparent KD of MS2 coat protein” value (input ligand: FMN 200 uM) was 28.5 nM and the “apparent KD of MS2 coat protein” value (input ligand: none) was 27.1 nM.

In the case of “UCACCGCAAGGAUAUACUUGCGGUGAUGUUCGAAUCUUUCUACUUGAGGAUCACCCAAGUAGAAGGUGCGGUGA [jl-ex2.4.69 ViennaUCT mod] (Eterna round: R97, puzzle: Exclusion 2)”, the “apparent KD of MS2 coat protein” value (input ligand: FMN 200 uM) was 15.4 nM and the “apparent KD of MS2 coat protein” value (input ligand: none) was 12.2 nM.

With “UCACGCACUGUUAGGAUAUGUAUUAUGAAGGUAGUACAGAAGGAACAUGAGGAUCACCCAUGUAAUCCUGGGUG [Eternabot (L1) Solution 61] (Eterna round: R97, puzzle: Brourd's mod of Exclusion 4)” the “apparent KD of MS2 coat protein” value (input ligand: FMN 200 uM) was 726 nM and the “apparent KD of MS2 coat protein” value (input ligand: none) was 93.1 nM.

“UCACGGGACUAAGGAUAUACAUGAACCAUUUUUGUAGAAGGUAGAAUGUUUGAUCAUAAACUAAACAUGAGGAUCACCCAUGUU [JR_ExcNG1_Sub090] (Eterna round: R96, puzzle: Exclusion NG 1)” was tested, and the “apparent KD of MS2 coat protein” value [1] was 16.9 nM.

“UCAUACGGUGAGGAUAUCUCCGCUAAAGUGUGUAGAGAAGGCGCUACAUGAGGAUCACCCAUGUUUGUGGGCAG [Ex-6 Malc#11] (puzzle: Exclusion 6)” was tested, and the “apparent KD of MS2 coat protein” value [2] was 421 nM.

In the case of “UCAUACGUUGAGGAUAUCUCAGUUAGAAUAUUUAGAGAAGGCGAUACAUGAGGAUCACCCAUGUUUAUGGGCAU [Ex-6 Malc#6] (puzzle: Exclusion 6)”, the “apparent KD of MS2 coat protein” value [3] was 346 nM, the “apparent KD of MS2 coat protein” value [2] was 286 nM and the “apparent KD of MS2 coat protein” value [4] was 461 nM.

With “UCAUCGCAAGGAUAUACUUGCGGUGAUGUUCGAAUUCUUCUACUUGAGGAUCACCCAAGUAGAAGGUGCGAUGA [jl-ex2.4.63 ViennaUCT mod] (Eterna round: R97, puzzle: Exclusion 2)” the “apparent KD of MS2 coat protein” value (input ligand: FMN 200 uM) was 13.2 nM and the “apparent KD of MS2 coat protein” value (input ligand: none) was 13.5 nM.

“UCAUGGUAGCAGGAUAUGCUAUUUAUUUUUUAUGCAGAAGGGCUUACAUGAGGAUCACCCAUGUGUUAGGUUUA [JR_E6_Sub072] (puzzle: Exclusion 6)” was tested, and the “apparent KD of MS2 coat protein” value [2] was 81.3 nM.

With “UCAUGUAUGUAGGAUAUCGAUGUCGAAAGACAUCGAGAAGGACGUACAUGAGGAUCACCCAUGUAACUUGCAUG [Exclusion 6 - B - 11:a] (puzzle: Exclusion 6)” the “apparent KD of MS2 coat protein” value [3] was 12.9 nM, the “apparent KD of MS2 coat protein” value [2] was 18.8 nM and the “apparent KD of MS2 coat protein” value [4] was 12.9 nM.
